# Measured values from PMC12429950, “A chimeric RNA consisting of siRNA and aptamer for inhibiting dengue virus replication”.
# Experiments:
# [1] = molecular target: T1, DENV-1 VLP (envelope protein) (Dengue virus type 1, UniProt P17763 281-775); assay: SPR; response lower than DENV-Apt_41; conditions: protein: commercial; predicted stem-loop
# [2] = molecular target: T1, DENV-1 VLP (envelope protein); assay: SPR; conditions: protein: commercial; predicted stem-loop
# T1 sequence (P17763 281-775): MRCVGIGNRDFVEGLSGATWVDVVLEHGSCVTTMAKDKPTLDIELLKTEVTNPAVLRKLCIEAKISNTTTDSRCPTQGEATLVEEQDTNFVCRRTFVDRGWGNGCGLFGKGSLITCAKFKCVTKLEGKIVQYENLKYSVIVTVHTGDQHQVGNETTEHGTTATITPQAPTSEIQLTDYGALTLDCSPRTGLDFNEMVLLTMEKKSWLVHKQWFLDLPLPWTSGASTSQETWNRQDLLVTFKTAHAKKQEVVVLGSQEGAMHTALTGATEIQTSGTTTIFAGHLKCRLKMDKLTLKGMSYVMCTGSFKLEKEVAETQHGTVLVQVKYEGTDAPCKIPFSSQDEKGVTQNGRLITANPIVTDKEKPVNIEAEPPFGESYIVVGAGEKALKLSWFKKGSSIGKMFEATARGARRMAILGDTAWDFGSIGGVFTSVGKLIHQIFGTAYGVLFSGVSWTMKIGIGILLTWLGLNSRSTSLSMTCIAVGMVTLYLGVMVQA
Binder,binding result [1],binding result [2]
"DENV-Apt (XNA, 2'-fluoro C and U) RNA: GGGUCUUGUUUCUUCUCUGUGUGUAAUUUGUUUUACUGGGGGGUUAACCUAACAAGUGCACACUCGUCACACACUCACAUC",binds,–
"GGGUAAUUUGUUUUACUGGGGGGUUAACCUAACAAGUGCCC (XNA, 2'-fluoro C and U) [DENV-Apt_41]",–,binds
